Paper PMC7680125

System: Isw1 alone (Saccharomyces cerevisiae)
Test: EMSA
Conditions: 35 mM Na-HEPES pH 7.8, 5 mM MgCl2, 0.1 mM EGTA, 0.02 M EDTA (so in the source), 70 mM NaCl, 0.1 mg/ml BSA, 5-8% glycerol, 40 uM 2-mercaptoethanol, 30 C, 30 min …

0N70 mononucleosome
Kd: 21.9 nM
